Four substances from paper PMC10949841 can be followed below.

The target in assay [1] is HAdV-C5 hexon labeled with AlexaFluor594 (human adenovirus C5 (HAdV-C5)) (UniProt P04133). The assay can be described thus: MST; hexon labeled with AlexaFluor594 at constant amount, 16 concentrations of hLF or hLF mutant (1:1 serial dilution); 20 mM HEPES pH 7.2, 5 mM NaCl, 0.05% Tween 20; 25°C; Monolith NT.115; n = 2.
Assay [2] has as its target HAdV-C5 hexon (human adenovirus C5 (HAdV-C5)) (UniProt P04133). Briefly: native MS; 0.5 µM hexon:hLF complex purified in buffer D, exchanged into ammonium acetate pH 7.0 and diluted with water to 5.85 mM ammonium acetate; nanoelectrospray, Orbitrap Q Exactive UHMR.
The target is the same in assay [3]. Briefly: single-particle cryo-EM, 2D class averages; freshly purified hexon:hLF complex (1 mg/mL) on Au Quantifoil R1.2/1.3 grids, Talos Arctica; top and bottom views only, no 3D reconstruction; 2D classes used to refine a hybrid model.
The target is the same in assay [4]. The assay can be described thus: native MS; 0.5 µM hexon:hLF complex purified in buffer D, exchanged into and diluted with 20 mM ammonium acetate pH 7.0; nanoelectrospray, Orbitrap Q Exactive UHMR.

Several values for one entry are separate records, joined by “and”; a condition that tells them apart may be missing. Equal values may be shown once.

Sequence of HAdV-C5 hexon (human adenovirus C5 (HAdV-C5)) (P04133 whole entry): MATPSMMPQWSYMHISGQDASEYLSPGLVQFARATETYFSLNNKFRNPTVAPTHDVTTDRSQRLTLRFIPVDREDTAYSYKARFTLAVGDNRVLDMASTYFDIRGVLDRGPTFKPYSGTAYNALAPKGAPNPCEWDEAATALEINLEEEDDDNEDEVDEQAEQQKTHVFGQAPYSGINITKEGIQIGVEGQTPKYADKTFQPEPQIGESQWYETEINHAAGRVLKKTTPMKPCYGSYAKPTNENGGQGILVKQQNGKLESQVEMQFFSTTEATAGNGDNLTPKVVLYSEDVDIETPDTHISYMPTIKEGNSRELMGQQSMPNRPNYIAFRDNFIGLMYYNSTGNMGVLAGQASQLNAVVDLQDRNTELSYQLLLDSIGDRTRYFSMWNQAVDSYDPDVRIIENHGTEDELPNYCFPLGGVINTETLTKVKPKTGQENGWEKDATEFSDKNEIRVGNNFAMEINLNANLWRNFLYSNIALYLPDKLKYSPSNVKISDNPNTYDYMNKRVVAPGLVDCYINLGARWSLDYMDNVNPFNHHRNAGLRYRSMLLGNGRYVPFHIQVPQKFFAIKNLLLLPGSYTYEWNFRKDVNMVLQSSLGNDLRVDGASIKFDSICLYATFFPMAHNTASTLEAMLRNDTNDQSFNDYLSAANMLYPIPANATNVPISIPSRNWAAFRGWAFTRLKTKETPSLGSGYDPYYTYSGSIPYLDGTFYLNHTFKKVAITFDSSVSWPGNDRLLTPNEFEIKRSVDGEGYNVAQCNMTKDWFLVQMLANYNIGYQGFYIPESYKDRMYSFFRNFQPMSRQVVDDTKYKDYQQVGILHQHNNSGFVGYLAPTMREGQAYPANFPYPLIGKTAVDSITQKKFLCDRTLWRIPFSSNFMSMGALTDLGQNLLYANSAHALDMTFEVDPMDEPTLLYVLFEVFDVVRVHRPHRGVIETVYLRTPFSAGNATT
Sequence of HAdV-C5 hexon labeled with AlexaFluor594 (human adenovirus C5 (HAdV-C5)) (P04133 whole entry): as above

Take “hLF mut5 (R24S/R27A/K28A/R30A) (natural protein)”: the affinity relative to WT hLF in assay [1] is less than 20%.
Take “hLF mut7 (N673A/S678A) (natural protein)”: in assay [1], the reduction of binding affinity against WT hLF came out at 40%.
As for “hLF mut8 (E687A/K691A) (natural protein)”, the reduction of binding affinity against WT hLF in assay [1] is 70%.
Take “human lactoferrin (hLF), wild type (natural protein)”: the stoichiometry N (hLF per hexon trimer) in assay [2] is 1 and 2; in assay [3], 2 and 1; in assay [4] it was 1.
